# Measured values reported in patent US20240059752A1 (ZHEJIANG DOER BIOLOGICS CO., LTD., priority 2020, published 2024).
# Where no end group is shown, it is not given here. [ ]: non-standard residue; d: D form. Aib = CC(C)(N)C(=O)O
# Target: T1, hGIPR (Homo sapiens, UniProt P48546)
# T1 construct: expressed in transfected cells
# T1 sequence (P48546 22-466): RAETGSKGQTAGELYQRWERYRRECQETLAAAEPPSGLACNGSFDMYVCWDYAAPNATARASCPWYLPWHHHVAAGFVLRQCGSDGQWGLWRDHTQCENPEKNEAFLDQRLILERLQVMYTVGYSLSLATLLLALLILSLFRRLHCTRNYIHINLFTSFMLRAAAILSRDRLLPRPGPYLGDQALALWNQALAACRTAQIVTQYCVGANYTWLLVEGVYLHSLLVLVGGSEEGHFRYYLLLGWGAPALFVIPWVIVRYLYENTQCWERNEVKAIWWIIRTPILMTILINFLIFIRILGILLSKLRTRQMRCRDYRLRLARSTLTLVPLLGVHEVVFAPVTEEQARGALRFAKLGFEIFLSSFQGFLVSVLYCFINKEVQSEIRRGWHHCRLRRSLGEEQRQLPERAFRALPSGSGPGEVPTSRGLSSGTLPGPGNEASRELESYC
# Assay: GIPR agonist activity, luciferase reporter gene assay in CHO-K1 cells
# Type: cell-based
# Details: % that of natural GIP peptide
substance,measurement,value
"P29: GCG analogue, SEQ ID No. 5, unconjugated backbone of P29F (H[Aib]QGTFTSDYSK[Aib]KDSQAAQDFVQWLLAGGPSSGAPPPS-NH2)",GIPR agonist activity relative to natural GIP peptide,about 2%
